Assay [1] addresses mesothelin-Fc fusion protein (extracellular domain of human mesothelin fused with rabbit IgG Fc) (rabbit; human) (UniProt Q13421). The experiment in a line: Biacore, affinity to mesothelin-Fc in solution. For orientation: SPR reads the build-up and loss of mass on a sensor chip optically.
For assay [2] the target is unchanged. The experiment in a line: Western blot on SDS-denatured mesothelin-Fc, MAb 1 µg/ml. For orientation: Immunoblotting shows a protein as a band on a membrane.
Assay [3] deals with mesothelin (native, on mesothelin-expressing human cells and in mesothelioma tissue) (human) (UniProt Q13421). The experiment in a line: flow cytometry on H226 cells, MAb 1 µg/ml, PE-labeled anti-mouse IgG. The conditions noted are these: scale: log geometric mean of fluorescence intensity. Background: In flow cytometry, cells or beads pass a laser one at a time.
For assay [4], the target named is mesothelin-Fc fusion protein (extracellular domain of human mesothelin fused with rabbit IgG Fc) (rabbit; human) (UniProt Q13421). The experiment in a line: ELISA on plates coated with mesothelin-Fc, HRP-labeled anti-mouse IgG.
Assay [5] has the same target. The assay can be described thus: ELISA on mesothelin-Fc (summary of Table 1).
Assay [6] shares this target. The assay can be described thus: Western blot on SDS-denatured mesothelin-Fc.
Assay [7] has the same target. The assay can be described thus: Western blot on mesothelin-Fc (summary of Table 1).

Experimental findings from patent publication US20090047211A1 are described below.

For orientation: Kd means the free concentration of one partner at which half of the binding sites on the other are occupied at equilibrium, for simple one-to-one binding. Consider MAb K1 (antibody), for which the dissociation constant Kd in assay [1] came to 12 nM. Further, the minimum amount of mesothelin-Fc detected in Western blot in assay [2] came out at 25 ng. In addition, the FACS reactivity to H226 cells (log geometric mean of fluorescence intensity) in assay [3] worked out at 2.5. The amount of MAb that showed OD450 = 0.5 in ELISA in assay [4] came to 1000 ng/mL.

B1: MAb MB (antibody, IgG2a, V domains shown)
VH: EVKLVESGGGLVQPGGSLSLSCAASGFTFTDYYMSWVRQPPGRALEWLGFIRGKANGYTTEYSASVKGRFTISRDYSQSILYLHMNALRAEDSATYSCARYYYSNYVWYFDVWGTGTTVTVSS
VL: DIVMTQSQKFMSTSVGDRVSVTCKASQNVGTNVAWYQQKPGLSPKVLIHSASYRFSGVPDRFTGSGSGTDFTLSISNVQSEDLAKYFCQQYNSYPLTFGAGTKLELKR
As to B1, the fold reactivity in ELISA against the K1 and 5B2 antibodies in assay [5] amounted to 500 fold. The fold sensitivity in Western blot against MAbs K1 and 5B2 in assay [6] amounted to 10 fold. This molecule also showed a dissociation constant (Kd) in assay [1] of 0.6 nM. The fold sensitivity in Western blot against the K1 and 5B2 antibodies in assay [7] was found to be 12 fold. The minimum amount of mesothelin-Fc detected in Western blot in assay [2] is 2 ng. The molecule further showed an FACS reactivity to H226 cells (log geometric mean of fluorescence intensity) in assay [3] of 3.3. The amount of MAb that showed OD450 = 0.5 in ELISA in assay [4] worked out at 1.9 ng/mL.

B2: MAb MN (antibody, IgG2a, V domains shown)
VH: QVQLQQPGAELVKPGASMKLSCKASGYTFTSYWMHWVKQRPGQGLEWIGMIHPNSDNTIYYEKFKSKATLTVDKSSSTAYMQLSSLTSEDSAVYYCAIIITPVVPKFDYWGQGTTLTVSS
VL: DIVMTQSHQFMSTSVGDRVSVTCKASHDVGTSVAWYQQKPGQSPKLLIYWASTRHTGVPDRFTGSGSGTDFTLTISNVQSEDLADYFCQQYSSYPLTFGAGTKLELKR
For B2, the fold reactivity in ELISA against the K1 and 5B2 antibodies in assay [5] turned out to be 500 fold. The molecule also returned a fold sensitivity in Western blot against MAbs K1 and 5B2 in assay [6] of 10 fold. The same molecule had an equilibrium dissociation constant (Kd) in assay [1] of 1 nM. Moreover, in assay [7], the fold sensitivity in Western blot against the K1 and 5B2 antibodies was found to be 12 fold. The molecule also had a minimum amount of mesothelin-Fc detected in Western blot in assay [2] of 2 ng. This molecule displayed an FACS reactivity to H226 cells (log geometric mean of fluorescence intensity) in assay [3] of 3.5. Further, the amount of MAb that showed OD450 = 0.5 in ELISA in assay [4] was 1.1 ng/mL.
